How the values were obtained:
[1] = biological target: T1, GITR断片(アミノ酸翻訳部分N末端1-65番目)−HIDE1の膜貫通領域−mycタグ (human, UniProt Q9Y5U5 26-65); assay: immunoprecipitation from 293T lysate, Western blot with HRP-labelled anti-myc antibody
T1 construct: domain: 膜貫通領域; Includes the signal peptide as encoded; no cleavage site stated; also called N末端1-65番目のGITR断片; not shown: HIDE1 transmembrane region; myc tag
T1 chain: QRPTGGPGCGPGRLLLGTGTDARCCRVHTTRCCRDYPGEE

[2] = biological target: T2, GITR断片(アミノ酸翻訳部分N末端1-72番目)−HIDE1の膜貫通領域−mycタグ (human, UniProt Q9Y5U5 26-72); assay: as above
T2 construct: domain: 膜貫通領域; also called N末端1-72番目のGITR断片; not shown: HIDE1 transmembrane region; myc tag
T2 chain: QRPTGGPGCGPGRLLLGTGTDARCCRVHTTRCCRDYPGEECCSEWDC

[3] = biological target: T3, GITR断片(アミノ酸翻訳部分N末端1-60番目)−HIDE1の膜貫通領域−mycタグ (human); assay: as above
T3 construct: domain: 膜貫通領域; Includes the signal peptide as encoded; no cleavage site stated; also called GITRの1-180塩基長; N末端1-60番目のGITR断片; not shown: HIDE1 transmembrane region; myc tag
T3 chain: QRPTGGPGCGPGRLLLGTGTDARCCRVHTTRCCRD

[4] = biological target: T4, ヒトGITR(glucocorticoid-induced tumor necrosis factor receptor-family related gene) (human, UniProt Q9Y5U5 26-241); assay: cell ELISA and flow cytometry of hybridoma supernatant on 293T/GITR cells
T4 construct: whole, on cells; also called TNFRSF18
T4 sequence (looked up): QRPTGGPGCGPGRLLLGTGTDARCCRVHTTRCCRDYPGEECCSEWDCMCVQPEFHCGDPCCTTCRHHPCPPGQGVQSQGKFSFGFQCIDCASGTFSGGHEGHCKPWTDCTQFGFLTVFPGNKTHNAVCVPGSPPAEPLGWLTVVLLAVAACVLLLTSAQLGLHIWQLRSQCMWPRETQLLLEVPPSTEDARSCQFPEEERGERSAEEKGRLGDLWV

Measured: binding result

B1: 抗ヒトGITRモノクローナル抗体(40-44抗体) (antibody, V domains shown)
VH: QVQLQQSGAELVRPGTSVKVSCKASGYAFSNYLIEWVKQRPGQGLEWIGVINPGSGSTNYNEKFKGKATLTADKSSSTAYMQLSSLTSDDSAVYFCARRTYYYGSNYYAMDYWGQGTSVTVSS
VL: DIQMNQSPSSLSSSLGDTITITCHASQNINVWLSWYQQKPGNIPKLLIYKASNLHTGVPSRFSGSGSGTGFTLTISSLQPEDIATYYCQQGQSYPFTFGSGTKLEIK
notes: Mouse (Balb/c) hybridoma monoclonal antibody; mouse IgG2A and mouse IgG1 were used as controls in different experiments; also called 抗ヒトGITR抗体
binds: all assays above
